Data published in patent US20230039487A1 (published 2023).

T1: hBCMA ECD hFc (ACRO, BC7-H5254) (human, UniProt Q02223 1-54)
T1 chain: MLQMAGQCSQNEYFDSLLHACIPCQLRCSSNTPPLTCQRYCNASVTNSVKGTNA

T2: hu (human) BCMA ECD His (ACRO, BCA-H522y) (human, UniProt Q02223 1-54)
T2 chain: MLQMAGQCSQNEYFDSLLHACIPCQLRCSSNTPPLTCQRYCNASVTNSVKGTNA


What was measured:
[1] = molecular target: T1, hBCMA ECD hFc (ACRO, BC7-H5254); test: BLI (Fortebio)
[2] = molecular target: T1, hBCMA ECD hFc (ACRO, BC7-H5254); test: ELISA
[3] = molecular target: T2, hu (human) BCMA ECD His (ACRO, …); test: ELISA

Row | Kd [1] [nM] | EC50 [2] [nM] | EC50 [3] [nM] | Binder
1 | < 0.001 | 0.32 | – | R0317 (C11D5.3 BCMA mouse monoclonal antibody) (antibody, V domains shown) VH: QIQLVQSGPELKKPGETVKISCKASGYTFTDYSINWVKRAPGKGLKWMGWINTETREPAYAYDFRGRFAFSLETSASTAYLQINNLKYEDTATYFCALDYSYAMDYWGQGTSVTVSS VL: DIVLTQSPASLAMSLGKRATISCRASESVSVIGAHLIHWYQQKPGQPPKLLIYLASNLETGVPARFSGSGSGTDFTLTIDPVEEDDVAIYSCLQSRIFPRTFGGGTKLEIK
2 | < 0.001 | 0.305 | – | 5F4 (antibody, V domains shown) VH: EVQLQQSGPELIKPGASVKMSCKASAGKWERWAHWVKQKPGQGLEWIGYKPAYWTSAYNEKFKGKATLTSDKSSSTAYMELSSLTSEDSAVYYCATLDYDDGYFDYWGQGTTLTVSS VL: EIVLTQSPGTLSLSPGERATLSCRASQSVSSSYLAWYQQKPGQAPRLLIYQASSDATGIPDRFSGSGSGTDFTLTISRLEPEDFAVYYCQQYGYPPSYTFGQGTKVEIK
3 | – | – | 0.0506 | hu VH2-VL1 (antibody, V domains shown) VH: QVQLVQSGAEVKKPGASVKMSCKASGYTFTSYVVHWVRQAPGQGLEWIGYIIPYNDDTKYNEKFKGRVTLTSDKSTSTAYMELSSLRSEDTAVYYCARWDYDDGYFDYWGQGTTVTVSS VL: DVVMTQSPLSLPVTLGQPASISCRSSQSLLHSNGNTYLHWYLQKPGQSPQLLIYKVSNRFSGVPDRFSGSGSGTDFTLKISRVEAEDVGVYFCSQITHIPFTFGQGTKLEIK
4 | – | – | 0.0474 | hu VH1-VL1 (antibody, V domains shown) VH: QVQLVQSGAEVKKPGASVKMSCKASGYTFTSYVVHWVRQAPGQGLEWIGYIIPYNDDTKYNEKFKGKATLTSDKSSSTAYMELSSLRSEDTAVYYCARWDYDDGYFDYWGQGTTVTVSS VL: DVVMTQSPLSLPVTLGQPASISCRSSQSLLHSNGNTYLHWYLQKPGQSPQLLIYKVSNRFSGVPDRFSGSGSGTDFTLKISRVEAEDVGVYFCSQITHIPFTFGQGTKLEIK
5 | – | – | 0.0206 | hu VH1-VL2 (antibody, V domains shown) VH: QVQLVQSGAEVKKPGASVKMSCKASGYTFTSYVVHWVRQAPGQGLEWIGYIIPYNDDTKYNEKFKGKATLTSDKSSSTAYMELSSLRSEDTAVYYCARWDYDDGYFDYWGQGTTVTVSS VL: DVVMTQTPLSLSVTPGQPASISCKSSQSLLHSNGNTYLHWYLQKPGQSPQLLIYKVSNRFSGVPDRFSGSGSGTDFTLKISRVEAEDVGVYFCSQITHIPFTFGQGTKLEIK
6 | – | – | 0.0545 | hu VH1-VL3 (antibody, V domains shown) VH: QVQLVQSGAEVKKPGASVKMSCKASGYTFTSYVVHWVRQAPGQGLEWIGYIIPYNDDTKYNEKFKGKATLTSDKSSSTAYMELSSLRSEDTAVYYCARWDYDDGYFDYWGQGTTVTVSS VL: DIVMTQTPLSLSVTPGQPASISCKSSQSLLHSNGNTYLHWYLQKPGQPPQLLIYKVSNRFSGVPDRFSGSGSGTDFTLKISRVEAEDVGVYYCSQITHIPFTFGQGTKLEIKR
7 | < 0.001 | 0.279 | 0.054 | 5E2 (antibody, V domains shown) VH: EVQLQQSGPELIKPGASVKMSCKASGYTFTSYVVHWVKQKPGQGLEWIGYIIPYNDDTKYNEKFKGKATLTSDKSSSTAYMELSSLTSEDSAVYYCARWDYDDGYFDYWGQGTTLTVSS VL: DVVMTQTPLSLPVTLGDQASISCRSSQSLLHSNGNTYLHWYLQKPGQSPKLLIYKVSNRFSGVPDRFSGSGSGTDFTLKISRVEAEDLGVYFCSQITHIPFTFGSGTKLEIKR
